Laboratory results taken from article PMC9114768 (Frontiers in Immunology, 2022).

T1: S1-RBD peptide 13 (SARS-CoV-2 (YP_009724390))
T1 construct: source: synthetic peptide (Leadgene Biomedical)
T1 chain: PFERDISTEIYQAGS


How the values were obtained:
Settings in all cases: both partners purified
[1] = biological target: His-tagged SARS-CoV-2 S1-RBD recombinant protein, wild type (SARS-CoV-2 (YP_009724390), UniProt P0DTC2); assay: SPR; Biacore T200; […]; mAb 256 nM to 8 nM; 30 μL/min, 120 s association, 360 s dissociation; 25°C; 1:1 binding model
[2] = biological target: T2, C-terminal Fc-tagged human ACE2 recombinant protein (Homo sapiens, UniProt Q9BYF1); assay: SPR; Biacore T200; […]; mAb 1024 nM to 8 nM; 30 μL/min, 120 s association, 360 s dissociation; 25°C; 1:1 binding model
T2 construct: also called ACE2-hFc; recombinant ACE2-hFc; source: CHO cells, purified (Leadgene Biomedical Cat. No. 63333); not shown: Fc (human, hFc), C-terminal, kept
T2 sequence (Q9BYF1 18-740): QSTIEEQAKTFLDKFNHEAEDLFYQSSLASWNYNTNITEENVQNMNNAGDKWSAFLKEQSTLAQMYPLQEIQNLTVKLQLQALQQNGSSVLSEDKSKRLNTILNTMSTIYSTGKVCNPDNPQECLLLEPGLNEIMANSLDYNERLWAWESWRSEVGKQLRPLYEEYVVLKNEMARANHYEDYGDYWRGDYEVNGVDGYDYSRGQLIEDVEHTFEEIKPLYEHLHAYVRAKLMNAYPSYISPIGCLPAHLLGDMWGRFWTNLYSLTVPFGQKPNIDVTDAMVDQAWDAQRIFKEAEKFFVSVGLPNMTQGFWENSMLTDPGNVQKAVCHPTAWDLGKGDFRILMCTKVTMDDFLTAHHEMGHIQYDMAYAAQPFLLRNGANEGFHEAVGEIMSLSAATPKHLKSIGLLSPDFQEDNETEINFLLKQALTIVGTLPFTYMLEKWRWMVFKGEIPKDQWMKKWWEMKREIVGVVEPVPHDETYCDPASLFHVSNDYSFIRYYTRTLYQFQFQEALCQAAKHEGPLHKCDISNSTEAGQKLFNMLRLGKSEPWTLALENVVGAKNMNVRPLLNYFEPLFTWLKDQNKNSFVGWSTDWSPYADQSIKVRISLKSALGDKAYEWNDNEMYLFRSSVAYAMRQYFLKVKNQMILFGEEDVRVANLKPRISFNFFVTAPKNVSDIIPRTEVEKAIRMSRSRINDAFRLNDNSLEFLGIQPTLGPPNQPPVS

[3] = biological target: T1, S1-RBD peptide 13; assay: ELISA

| Binder | Kd [1] [nM] | Kd [2] [nM] | binding result [3] |
| --- | --- | --- | --- |
| monoclonal antibody 127 (antibody, V domains shown) VH: QVQLQQPGAELVKPGASVKLSCKASGYTFTSYWMHWVKQRPGQGLEWIGEINPSNGRKNYNEKFKSKATLTVDKSSSTAYMQLSSLTSEDSAVYYCVRGDYGSSYYWYFDVWGAGTTVTVSS VL: not shown | 2.44 | 16.1 | binds |
| monoclonal antibody 150 (antibody, V domains shown, also called mAb 150) VH: QVQLQQPGAELVKPGASVKLSCKASGYTFTSYWMHWVKQRPGQGLEWIGEINPSNGRKNYNEKFKSKATLTVDKSSSTAYMQLSSLTSEDSAVYYCVRGDYGSSYYWYFDVWGAGTTVTVSS VL: not shown | 3.87 | 2770 | binds |
